Reference: the supplement of paper PMC7877785
± gives the uncertainty stated by the source.

Assay: self-splicing fitness, log relative to wild type (ln ratio); higher = more splicing; Tetrahymena group I intron in knt gene, E. coli kanamycin selection, DiMSum; sequences stand for … in CUCUCU…GGAGGGAAAAGUUAUCAGGCAUGCACCUGGUAGCUAGUCUUUAAACCAAUAGAUUGCAUCGGUUUAAAAGGCAAGACCGUCAAAUUGCGGGAAAGGGGUCAACAGCCGUUCAGUACCAAGUCUCAGGGGAAACUUUGAGAUGGCCUUGCAAAGGGUAUGGUAAUAAGCUGACGGACAUGGUCCUAACCACGCAGCCAAGUCCUAAGUCAACAGAUCUUCUGUUGAUAUGGAUGCAGUUCACAGACUAAAUGUCGGUCGGGGAAGAUGUAUUCUUCUCAUAAGAUAUAGUCGGACCUCUCCUUAAUGGGAGCUAGCGGAUGAAGUGAUGCAACACUGGAGCCGCUGGGAACUAAUUUGUAUGCGAAAGUAUAUUGAUUAGUUUUGGAGUACUCGUGGUCG
Outline: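 Pooled colonies went to amplicon sequencing on an Illumina HiSeq 2500 after six replicate transformations. The plates were LB agar with 100 μg/mL carbenicillin, 50 μM IPTG and 0.2% rhamnose, with or without 25 μg/mL kanamycin, incubated overnight at 37°C or 30°C. The E. coli BL21(DE3) library had all eight P1ex-region intron nucleotides randomised, the intron placed in the knt kanamycin-resistance gene on pET-22b(+). DiMSum fitness is the error-weighted combination of replicate fold changes, kanamycin against none, normalised to wild type.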

Row | Sequence | self-splicing fitness (ln) (30 °C) | self-splicing fitness (ln) (37 °C)
1 | CCUAAGCAAUAUUACGGGCA | -3.62 ± 0.25 | -2.85 ± 0.24
2 | UCCGAGCAAUAUUACGAUAC | -4.73 ± 0.46 | -2.96 ± 0.35
3 | AAAUAGCAAUAUUACGAAUC | -2.64 ± 0.18 | -2.29 ± 0.22
4 | AGAUAGCAAUAUUACGCAGC | -2.44 ± 0.22 | -1.43 ± 0.4
5 | UGUAAGCAAUAUUACGCAUA | -0.865 ± 0.18 | -1.69 ± 0.17
6 | GGAUAGCAAUAUUACGUCAA | -1.09 ± 0.19 | 0.00829 ± 0.15
7 | GGCUAGCAAUAUUACGACGA | -1.31 ± 0.15 | -1.08 ± 0.17
8 | UACGAGCAAUAUUACGCAUG | -2.37 ± 0.25 | -2.25 ± 0.24
9 | GCCAAGCAAUAUUACGACUU | -2.29 ± 0.15 | -1.68 ± 0.16
10 | UUCUAGCAAUAUUACGGGCA | -0.323 ± 0.12 | -0.0935 ± 0.12
11 | CUACAGCAAUAUUACGCCGG | -2.19 ± 0.13 | -1.26 ± 0.13
12 | UGCCAGCAAUAUUACGGCCU | -0.579 ± 0.1 | -0.213 ± 0.12
13 | GAUUAGCAAUAUUACGUCAU | -2.76 ± 0.24 | -1.79 ± 0.36
14 | CAAAAGCAAUAUUACGCAUC | -3.35 ± 0.11 | -1.52 ± 0.12
15 | GUAGAGCAAUAUUACGUGAA | -1.86 ± 0.17 | -1.87 ± 0.2
16 | GGAGAGCAAUAUUACGCGCA | -1.36 ± 0.19 | -0.414 ± 0.21
17 | ACCUAGCAAUAUUACGCCGA | -2.23 ± 0.13 | -1.01 ± 0.13
18 | GCGAAGCAAUAUUACGAAGA | -2.14 ± 0.22 | -0.931 ± 0.21
19 | AGACAGCAAUAUUACGAAAG | -2.18 ± 0.17 | -2.48 ± 0.21
20 | CCUCAGCAAUAUUACGGUUA | -3.34 ± 0.21 | -3.26 ± 0.19
21 | GCUAAGCAAUAUUACGAUAA | -1.88 ± 0.17 | -1.1 ± 0.17
22 | AUAUAGCAAUAUUACGGAAC | -2.89 ± 0.41 | –
23 | UUGCAGCAAUAUUACGUUCU | -2.44 ± 0.12 | -0.872 ± 0.11
24 | ACUAAGCAAUAUUACGAAUU | -2.52 ± 0.096 | -0.972 ± 0.089

Row | Sequence | self-splicing fitness (ln) (30 °C) | self-splicing fitness (ln) (37 °C)
25 | CUGAAGCAAUAUUACGCGUC | -3.62 ± 0.33 | -3.55 ± 0.35
26 | UUCUAGCAAUAUUACGGGCG | -0.382 ± 0.12 | -0.891 ± 0.12
27 | UUACAGCAAUAUUACGUACC | -1.19 ± 0.21 | -0.649 ± 0.33
28 | CAGUAGCAAUAUUACGCCUC | -2.93 ± 0.46 | -2.4 ± 0.44
29 | GGCGAGCAAUAUUACGAUGA | -2.08 ± 0.17 | -2.93 ± 0.33
30 | ACCAAGCAAUAUUACGUCUU | -4.21 ± 0.14 | -2.59 ± 0.12
31 | AUCCAGCAAUAUUACGCACA | -0.451 ± 0.098 | 0.366 ± 0.1
32 | UCAGAGCAAUAUUACGACUU | -2.45 ± 0.19 | -3.12 ± 0.38
33 | GCCAAGCAAUAUUACGGUUA | -0.632 ± 0.072 | -0.00086 ± 0.07
34 | UGUUAGCAAUAUUACGCGUU | -1.38 ± 0.1 | -1.01 ± 0.11
35 | GAUCAGCAAUAUUACGGAAG | -2.38 ± 0.1 | -0.761 ± 0.091
36 | UAGCAGCAAUAUUACGUUUG | -1.29 ± 0.077 | -1.12 ± 0.11
37 | ACCGAGCAAUAUUACGAAUA | -3.02 ± 0.32 | -2.41 ± 0.2
38 | CACCAGCAAUAUUACGGCUG | -3.78 ± 0.13 | -1.29 ± 0.083
39 | CAGAAGCAAUAUUACGUCAC | -3.02 ± 0.36 | -1.05 ± 0.25
40 | GCAUAGCAAUAUUACGGUGA | -0.491 ± 0.11 | 0.678 ± 0.13
41 | UAUAAGCAAUAUUACGUUUU | -3.44 ± 0.23 | -1.85 ± 0.15
42 | AGAUAGCAAUAUUACGCCCG | -0.427 ± 0.23 | -0.478 ± 0.24
43 | GGCCAGCAAUAUUACGAUCC | -0.826 ± 0.11 | 0.0889 ± 0.14
44 | CCGUAGCAAUAUUACGACAG | -0.678 ± 0.11 | -0.234 ± 0.13
45 | UGCAAGCAAUAUUACGAAUU | -2.91 ± 0.14 | -3.01 ± 0.23
46 | GACGAGCAAUAUUACGUAUG | -2.4 ± 0.17 | -1.58 ± 0.16
47 | CCAGAGCAAUAUUACGUAGU | -4.61 ± 0.22 | -2.87 ± 0.21
48 | GCCUAGCAAUAUUACGGAGU | -0.965 ± 0.085 | -0.198 ± 0.094
